How the values were obtained:
[1] = biological target: T1, Kat (HemL-like), 3-aminobutyryl-CoA aminotransferase (Cloacimonas acidaminivorans (SeqCode), UniProt B0VH76); test: spectrophotometric, acetoacetyl-CoA formation at […] nm; type: biochemical; details: 25 µM (3S)-3-aminobutyryl-CoA; 50 mM Tris/HCl pH 8.1, 5 mM MgCl2
T1 construct: full-length CDS in pEXP-5-NT/TOPO, E. coli; by primers starts (M)AEKLKLA, ends EVKKML
T1 sequence (B0VH76 1-414): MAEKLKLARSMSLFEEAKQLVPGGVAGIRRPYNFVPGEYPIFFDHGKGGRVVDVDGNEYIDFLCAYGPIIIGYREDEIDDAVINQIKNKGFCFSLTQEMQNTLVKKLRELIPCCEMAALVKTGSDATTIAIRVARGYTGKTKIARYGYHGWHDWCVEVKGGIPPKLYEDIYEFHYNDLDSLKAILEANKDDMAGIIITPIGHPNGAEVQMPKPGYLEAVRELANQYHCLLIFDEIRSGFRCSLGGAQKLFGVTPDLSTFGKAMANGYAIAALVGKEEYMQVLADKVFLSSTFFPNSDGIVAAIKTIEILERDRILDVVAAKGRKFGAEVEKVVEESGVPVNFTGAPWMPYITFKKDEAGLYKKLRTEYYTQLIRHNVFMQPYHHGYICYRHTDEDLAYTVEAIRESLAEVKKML

[2] = biological target: T2, AtoA/AtoD complex (butyrate-acetoacetate CoA transferase) (Cloacimonas acidaminivorans (SeqCode), UniProt B0VIH1+B0VIH2); test: CoA transferase assay, acetoacetyl-CoA formation at […] nm; type: biochemical; details: 4 mM MgCl2, 50 mM Tris/HCl pH 8.1
T2 construct: each subunit in pEXP-5-NT/TOPO, E. coli, mixed equimolar; by primers AtoA (M)ALDKRAM...ERVNTF, AtoD (M)VQIISA...VLAKEN
T2 sequence (B0VIH1 1-218): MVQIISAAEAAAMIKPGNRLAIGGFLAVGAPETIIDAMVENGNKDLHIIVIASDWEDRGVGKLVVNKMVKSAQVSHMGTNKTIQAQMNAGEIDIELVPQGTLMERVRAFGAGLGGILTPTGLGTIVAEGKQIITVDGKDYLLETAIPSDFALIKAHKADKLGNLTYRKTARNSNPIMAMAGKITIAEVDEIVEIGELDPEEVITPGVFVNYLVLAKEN
T2 sequence (B0VIH2 1-217): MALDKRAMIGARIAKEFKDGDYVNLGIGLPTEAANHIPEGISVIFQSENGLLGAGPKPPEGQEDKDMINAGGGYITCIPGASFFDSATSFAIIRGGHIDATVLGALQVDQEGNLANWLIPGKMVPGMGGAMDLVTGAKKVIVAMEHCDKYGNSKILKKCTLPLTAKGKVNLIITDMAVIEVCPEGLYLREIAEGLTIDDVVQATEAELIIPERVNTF

[3] = substrate: C[C@H](N)CC(=O)SCCNC(=O)CCNC(=O)[C@H](O)C(C)(C)COP(=O)(O)OP(=O)(O)OC[C@H]1O[C@@H](n2cnc3c(N)ncnc32)[C@H](O)[C@@H]1OP(=O)(O)O; test: purified protein; type: biochemical, Cloacimonas acidaminivorans (SeqCode); details: 50 mM α-ketoglutarate, 50 mM Tris/HCl pH 8.1, 5 mM MgCl2
[4] = substrate: O=C(O)CCC(=O)C(=O)O; test: purified protein; type: biochemical, Cloacimonas acidaminivorans (SeqCode); details: 25 µM (3S)-3-aminobutyryl-CoA, 50 mM Tris/HCl pH 8.1, 5 mM MgCl2

## CC(=O)C(=O)O [pyruvate]
[1]
  K m (M): 20.1±1.3 10^−3 M

## CC(=O)CC(=O)O [acetoacetate]
[2]; acetyl-CoA as CoA donor
  CoA transferase assay, acetoacetyl-CoA formation at 310 nm: formation in vitro of acetoacetyl-CoA and acetate from acetoacetate and acetyl-CoA

## CC(=O)SCCNC(=O)CCNC(=O)[C@H](O)C(C)(C)COP(=O)(O)OP(=O)(O)OC[C@H]1O[C@@H](n2cnc3c(N)ncnc32)[C@H](O)[C@@H]1OP(=O)(O)O [acetyl-CoA]
[2]; 10 mM acetoacetate
  CoA transferase assay, acetoacetyl-CoA formation at 310 nm: formation in vitro of acetoacetyl-CoA and acetate from acetoacetate and acetyl-CoA

B1: Kat (HemL-like), 3-aminobutyryl-CoA aminotransferase (Candidatus Cloacimonas acidaminivorans str. Evry) (protein)
chain: MAEKLKLARSMSLFEEAKQLVPGGVAGIRRPYNFVPGEYPIFFDHGKGGRVVDVDGNEYIDFLCAYGPIIIGYREDEIDDAVINQIKNKGFCFSLTQEMQNTLVKKLRELIPCCEMAALVKTGSDATTIAIRVARGYTGKTKIARYGYHGWHDWCVEVKGGIPPKLYEDIYEFHYNDLDSLKAILEANKDDMAGIIITPIGHPNGAEVQMPKPGYLEAVRELANQYHCLLIFDEIRSGFRCSLGGAQKLFGVTPDLSTFGKAMANGYAIAALVGKEEYMQVLADKVFLSSTFFPNSDGIVAAIKTIEILERDRILDVVAAKGRKFGAEVEKVVEESGVPVNFTGAPWMPYITFKKDEAGLYKKLRTEYYTQLIRHNVFMQPYHHGYICYRHTDEDLAYTVEAIRESLAEVKKML
notes: full-length CDS in pEXP-5-NT/TOPO, E. coli; by primers starts (M)AEKLKLA, ends EVKKML
[3]
  kcat: 1.8 ± 0.2 s⁻¹
  kcat/Km: 420000 M⁻¹ s⁻¹
[4]
  kcat: 1.8 ± 0.1 s⁻¹
  kcat/Km: 620 M⁻¹ s⁻¹

From publication PMC3149608, “A Novel Acyl-CoA Beta-Transaminase Characterized from a Metagenome” (PLoS ONE, 2011)
